The target of the series is T1, MdHB7L-HIS (UniProt D9ZJ22 1-236).
T1 sequence: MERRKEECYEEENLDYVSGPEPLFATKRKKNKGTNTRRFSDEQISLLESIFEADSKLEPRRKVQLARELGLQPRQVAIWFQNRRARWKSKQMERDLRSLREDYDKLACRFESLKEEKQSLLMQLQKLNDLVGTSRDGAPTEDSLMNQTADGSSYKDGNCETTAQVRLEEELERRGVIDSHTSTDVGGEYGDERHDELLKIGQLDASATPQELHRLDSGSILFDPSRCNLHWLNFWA
In words: EMSA; Beyotime Chemiluminescent EMSA Kit per manufacturer; buffer, salt, pH and temperature not given. To be noted: protein: recombinant; tags: His (pET28a; BamHI/SalI site primers, no stop codon in reverse primer); chain copies: 2; label: biotin; blunt. For orientation: A gel shift assay detects complexes by their altered migration in electrophoresis.

B1: pMdRD26-2-HB (dsDNA)
DNA 1: TCATTAAAGAGATAATTATGAAATAAAATA
DNA 2: TATTTTATTTCATAATTATCTCTTTAATGA
B1: the binding result is given as “binds”.

B2: pMdPRX53-3-HB (dsDNA)
DNA 1: TAAGTCTTTGTGTAATTAACAAAACAACGA
DNA 2: TCGTTGTTTTGTTAATTACACAAAGACTTA
B2: the binding result is reported as “no binding”.

B3: pMdERDL6-7-4-HB (dsDNA)
DNA 1: CTTAAAATTTCTTAATTATCAGTTAACACC
DNA 2: GGTGTTAACTGATAATTAAGAAATTTTAAG
Regarding B3, the binding result was “binds”.

B4: pMdPRX52-4-HB (dsDNA)
DNA 1: CTTGTCCGTAAATGATTGACATTGGTTTAC
DNA 2: GTAAACCAATGTCAATCATTTACGGACAAG
For the molecule B4, the binding result is recorded as “binds”.

B5: pMdCBF1-HB-P4 (dsDNA)
DNA 1: GAAATTAAGTACTAATTGTTCAGTACCAAG
DNA 2: CTTGGTACTGAACAATTAGTACTTAATTTC
Take B5: the binding result is reported as “binds”.

B6: pMdERDL6-7-5-HB (dsDNA)
DNA 1: ATGCAGAATCATTTATCCTTAATTAATCATA
DNA 2: TATGATTAATTAAGGATAAATGATTCTGCAT
Consider B6, for which the binding result is on record as “binds”.

B7: pMdCBF3-HB-P1 (dsDNA)
DNA 1: AAAAATAAAATGATTAGCCTGGCGCATCTA
DNA 2: TAGATGCGCCAGGCTAATCATTTTATTTTT
B7: the binding result is “binds”.

B8: pMdERD5-4-HB (dsDNA)
DNA 1: TTAAGACTAGCTTAATTGCGAGGATATCAT
DNA 2: ATGATATCCTCGCAATTAAGCTAGTCTTAA
Take B8: the binding result was “binds”.

B9: pMdCBF1-HB-P1 (dsDNA)
DNA 1: AAAGCATAGAAATAATTCCAAAACTATTTT
DNA 2: AAAATAGTTTTGGAATTATTTCTATGCTTT
For B9, the binding result is listed as “binds”.

B10: pMdERD5-1-HB (dsDNA)
DNA 1: GAACTGCCTATATAATTAACAAGCTTCAGG
DNA 2: CCTGAAGCTTGTTAATTATATAGGCAGTTC
In the case of B10, the binding result was “binds”.

B11: pMdRD26-3-HB (dsDNA)
DNA 1: ATAGAAATAAATAATTGACGAGATAAATAG
DNA 2: CTATTTATCTCGTCAATTATTTATTTCTAT
For the molecule B11, the binding result was “binds”.

B12: pMdPRX53-1-HB (dsDNA)
DNA 1: AATAGACCTACTAATTGGCTCACATATGCA
DNA 2: TGCATATGTGAGCCAATTAGTAGGTCTATT
Consider B12, for which the binding result is “binds”.

B13: pMdCBF1-HB-P3 (dsDNA)
DNA 1: TAGCAACTAATTAAGTCTTCAATAATTTCTAAAAGCA
DNA 2: TGCTTTTAGAAATTATTGAAGACTTAATTAGTTGCTA
Consider B13, for which the binding result is reported as “binds”.

B14: pMdCBF3-HB-P2 (dsDNA)
DNA 1: CACTGTCGATTTAAATCATTCATACAGAAA
DNA 2: TTTCTGTATGAATGATTTAAATCGACAGTG
As to B14, the binding result was “binds”.

B15: pMdPAP2-2-HB (dsDNA)
DNA 1: GCACCAAGTCCAATTATTGAGCAATTAATG
DNA 2: CATTAATTGCTCAATAATTGGACTTGGTGC
For the molecule B15, the binding result is on record as “binds”.

B16: pMdPRX52-1-HB (dsDNA)
DNA 1: GTTAAACCAATTTAATTAATAAGATCTTAT
DNA 2: ATAAGATCTTATTAATTAAATTGGTTTAAC
Turning to B16, the binding result is given as “binds”.

B17: pMdCBF1-HB-P2 (dsDNA)
DNA 1: CTATTATTATTAATTACTTTTTTCACATAA
DNA 2: TTATGTGAAAAAAGTAATTAATAATAATAG
For the molecule B17, the binding result is “binds”.

B18: pMdERD5-2-HB (dsDNA)
DNA 1: TCTTTTTAGACCCTAATTATAGGGAAAGGG
DNA 2: CCCTTTCCCTATAATTAGGGTCTAAAAAGA
Take B18: the binding result is reported as “binds”.

B19: pMdPRX52-2-HB (dsDNA)
DNA 1: TATTAAATCAGAATTATTAAGAGAAAATAA
DNA 2: TTATTTTCTCTTAATAATTCTGATTTAATA
As for B19, the binding result is reported as “binds”.

B20: pMdERDL6-1-1-HB (dsDNA)
DNA 1: TTAGGATAGTAATTGGTAACTCTCGACTCC
DNA 2: GGAGTCGAGAGTTACCAATTACTATCCTAA
Take B20: the binding result was “binds”.

B21: pMdPRX52-3-HB (dsDNA)
DNA 1: CAAATGTAATTAGCATTAATCCCAACTAACTATAAAAATGATTATCCTTG
DNA 2: CAAGGATAATCATTTTTATAGTTAGTTGGGATTAATGCTAATTACATTTG
With B21, the binding result was “binds”.

B22: pMdRD26-1-HB (dsDNA)
DNA 1: ATGCGACCATTAATTAAACTTACAAAATGT
DNA 2: ACATTTTGTAAGTTTAATTAATGGTCGCAT
As to B22, the binding result is recorded as “binds”.

B23: pMdPAP2-1-HB (dsDNA)
DNA 1: GATGTGTGTTGTAATTAGTTACACGATTCT
DNA 2: AGAATCGTGTAACTAATTACAACACACATC
For the molecule B23, the binding result was “no binding”.

B24: pMdERDL6-7-3-HB (dsDNA)
DNA 1: CTTCATATCTTAATCATTCATCATGTATCG
DNA 2: CGATACATGATGAATGATTAAGATATGAAG
Turning to B24, the binding result is “binds”.

B25: pMdRD26-4-HB (dsDNA)
DNA 1: ATAAATATAATTACCTGTGAGTTGATTATA
DNA 2: TATAATCAACTCACAGGTAATTATATTTAT
Consider B25, for which the binding result is listed as “no binding”.

B26: pMdPRX52-5-HB (dsDNA)
DNA 1: AATTAAGCTAAATCATTAACAATTTTCATT
DNA 2: AATGAAAATTGTTAATGATTTAGCTTAATT
Take B26: the binding result is “binds”.

B27: pMdPRX53-2-HB (dsDNA)
DNA 1: AATACGCCTCTAATTATTAGGTGCTTTTTG
DNA 2: CAAAAAGCACCTAATAATTAGAGGCGTATT
Take B27: the binding result is “binds”.

B28: pMdERDL6-7-1-HB (dsDNA)
DNA 1: GCATTTTATAATTGTTTATTATTTTTAATTAGAAAAAATC
DNA 2: GATTTTTTCTAATTAAAAATAATAAACAATTATAAAATGC
For the molecule B28, the binding result is listed as “binds”.

B29: pMdERD5-3-HB (dsDNA)
DNA 1: ATTGTTTGTATTTAATTGTAAATAAAAATA
DNA 2: TATTTTTATTTACAATTAAATACAAACAAT
On to B29, for which the binding result is listed as “binds”.

B30: pMdERDL6-7-2-HB (dsDNA)
DNA 1: CAATATAATTAATTAAAAATTTTAAACTTTTCAACTAATTATGTTAG
DNA 2: CTAACATAATTAGTTGAAAAGTTTAAAATTTTTAATTAATTATATTG
For B30, the binding result is listed as “binds”.

Source of the values: publication PMC12224988, “The MdHB7L–MdICE1L–MdHOS1 Module Fine‐Tunes Apple Cold Response via CBF‐Dependent and CBF‐Independent Pathways”.
